{"source": "patent US8361965B2", "about": "“Recombinant chimeric protein of neutrophil inhibitory factor and hirugen, and pharmaceutical composition thereof” (Lunan Pharmaceutical Group Corporation, priority 2008, dated 2013)", "molecules": {"B1": {"name": "TNHH: recombinant chimeric protein of neutrophil inhibitory factor and hirugen, Met-NIF-GGGGG-FPRPGSGG-Hirugen (SEQ ID NO: 3), expressed in E. coli (protein)", "chain": "MNEHNLRCPQNGTEMPGFNDSIRLQFLAMHNGYRSKLALGHISITEESESDDDDDFGFLPDFAPRASKMRYLEYDCEAEKSAYMSARNCSDSSSPPEGYDENKYIFENSNNISEAALKAMISWAKEAFNLNKTKEGEGVLYRSNHDISNFANLAWDAREKFGCAVVNCPLGEIDDETNHDGETYATTIHVVCHYPKINKTEGQPIYKVGTPCDDCSEYTKKADNTTSADPVCIPDDGVCFIGSKADYDSKEFYRFRELGGGGGFPRPGSGGNGDFEEIPEEYL", "modifications": "N-terminal Met"}}, "key": {"thrombin [1]": {"target": "T1, thrombin (Homo sapiens, UniProt P00734)", "experiment": "in vitro binding of TNHH to thrombin (SEC-HPLC)", "parameters": "Human thrombin (127 Unit/ampoule), Lot No.: 20021105; purchased National Institute for The Control of Pharmaceutical and Biological Products Lot No.: 20021105", "details": "37° C. 1 h", "procedure": "Weigh TNHH, dilute to 1.0 mg/ml with phosphate buffer solution, and is ready for use; Weight fibrin precisely, dissolve and dilute to 0.1 mg/ml with phosphate buffer solution, and is ready for use; Weigh thrombin, dissolve and dilute to 100 units/ml with phosphate buffer solution, which is ready for use.\nFollowing the below procedures, test materials were reacted at 37° C. for 1 h, and then analyzed under the following chromatographic conditions.\n(1) pipette test material solutions (20 μl for each), loading for analysis, and recording each retention time.\n(2) pipette fibrin and thrombin solutions (0.5 ml for each), mixing and reacting at 37° C. for 1 h, and loading 20 μl sample for analysis.\n(3) pipette TNHH and fibrin solutions (0.5 ml for each), mixing and reacting at 37° C. for 1 h, and loading 20 μl sample for analysis.\n(4) pipette TNHH and thrombin solutions (0.5 ml for each), mixing and reacting at 37° C. for 1 h, and loading 20 μl sample for analysis.\n(5) pipette TNHH and mixture of fibrin and thrombin solutions (0.5 ml for each), mixing and reacting at 37° C. for 1 h, and loading 20 μl sample for analysis.\nFlow rate 0.5 ml/min; detection wavelength: 214 nm, Column temperature: room temperature; chromatogram recording time: 25 min."}, "rabbit whole blood": {"tested_on": "rabbit whole blood", "experiment": "in vitro whole blood anticoagulation assay", "parameters": "species or system white rabbit", "details": "for Test results (blood coagulation): room temperature 15 min", "procedure": "TNHH was diluted to 4 mg/ml, 2 mg/ml, 1 mg/ml, 0.5 mg/ml respectively with phosphate buffer solution (10 mmol/L PB, 0.15 mol/L NaCl, pH7.4). Heparin sodium was prepared to 1 mg/ml with the same buffer solution.\nVenous blood was taken from marginal ear vein of the rabbit, and rapidly added into 0#-5# tubes. 0.2 ml of the diluted TNHH samples with different concentrations was added into the 1#-4# tubes, respectively. 0.2 ml phosphate buffer solution was added into the 0# tube, which was used as a negative control. 0.2 ml heparin sodium (1 mg/ml) was added into the 5# tube, which was used as a positive control. The reagents were mixed rapidly and stored at room temperature for 15 min for observing the results."}, "thrombin [2]": {"target": "T1, thrombin", "experiment": "in vitro test for reversible reaction of TNHH and thrombin (Hirudin ELISA)", "format": "biochemical", "parameters": "Human thrombin (127 Unit/ampoule), Lot No.: 20021105; purchased National Institute for The Control of Pharmaceutical and Biological Products Lot No.: 20021105", "procedure": "Adding 1.27 ml water into one ampoule of human thrombin, and mixing to obtain 100 Unit/ml solution; diluting the mother liquid of TNHH with water to 1.0 mg/ml, taking 0.5 ml thus obtained solution and adding 0.1 ml thrombin solution ([…] of thrombin), reacting at 37 for 2 hr, centrifuging and collecting the supernatant, diluting for 10 times with the dilution solution (taught by the instruction of IMUBIND® Hirudin ELISA Kit), repeating the dilution for 6 times at a four fold gradient, detecting according to the instruction of IMUBIND® Hirudin ELISA Kit, and determining the absorbance at 450 nm wavelength."}, "[3]": {"tested_on": "human peripheral blood leukocyte", "experiment": "inhibition of H2O2 release from human peripheral blood leukocyte", "format": "cell-based", "procedure": "10 ml venous blood was taken from healthy people, and heparin sodium was added for anticoagulation. 10 ml HAS buffer (comprising RPMI 1640+10 mM HEPES+1.2 mM CaCl2+1.0 mM MgCl2+1% HAS, pH 7.4) was added into the blood and mixed. Leukocyte separation solution (Sangon) was charged into a sterile centrifuge tube, and whole blood mixture of the same volume was added slowly, and then centrifuged at 2000 rpm for 15 min. Leukocyte solution was taken from the interface and appropriate 1640 culture medium was added, centrifuged for 10 min, and washed twice. The supernatant was discarded, and appropriate HAS Buffer was added for resuspending the precipitate so as to prepare leukocyte suspension. The cell density was counted and adjusted to 4×10^7/ml. The product was separated at 37° C. and used within an hour.\nCoating the 24-well plate with Hank's solution comprising 50% fetal bovine serum and culturing at 37 for 60 min; washing the plate with 0.15 M NaCl twice; diluting the cells to 6.0×10^6/ml with the buffer solution for release assay, adding cells, and culturing at 37 for 5 min; adding FMLP to the final concentration of 250 nM; adding TNHH samples at different concentrations and culturing at 37 for 60 min; pipetting the cell suspension, centrifuging at 8000×g for 3 min, and collecting the supernatant. Adding the supernatant into multiple-wells of a 96-well ELISA plate, adding 1 N NaOH (25 μl) for stopping the reaction, and determining the OD at 610 nm wavelength. Calculating the IC50 value of TNHH for inhibiting H2O2 release, and using the standard H2O2 solution as a control."}}, "data": [{"molecule": "B1", "values": [{"measurement": "binding with thrombin", "setting": "thrombin [1]", "result": "could bind with fibrin and thrombin"}, {"measurement": "Test results (blood coagulation)", "setting": "rabbit whole blood; 0.2 ml TNHH 0.5 mg/ml + 1.0 ml rabbit blood", "result": "coagulated"}, {"measurement": "Test results (blood coagulation)", "setting": "rabbit whole blood; 0.2 ml TNHH 1 mg/ml + 1.0 ml rabbit blood", "result": "coag-"}, {"measurement": "Test results (blood coagulation)", "setting": "rabbit whole blood; 0.2 ml TNHH 2 mg/ml + 1.0 ml rabbit blood", "result": "coag-"}, {"measurement": "Test results (blood coagulation)", "setting": "rabbit whole blood; 0.2 ml TNHH 4 mg/ml + 1.0 ml rabbit blood", "result": "coag-"}, {"measurement": "whole blood anticoagulation effects in vitro", "setting": "rabbit whole blood; TNHH 0.5-4 mg/ml", "result": "no whole blood anticoagulation effects"}, {"measurement": "blood coagulation", "setting": "rabbit whole blood; different concentrations of TNHH (0.5-4 mg/ml)", "result": "coagulated"}, {"measurement": "in vitro interaction with thrombin (reversibility)", "setting": "thrombin [2]; 37, 2 hr, Hirudin ELISA of supernatant", "result": "irreversible"}, {"measurement": "hydrolysis by thrombin", "setting": "thrombin [2]; structure FPRP-GSGG-hirugen within TNHH", "result": "could not be hydrolyzed by thrombin"}, {"measurement": "IC50 value for inhibiting H2O2 release", "setting": "[3]; FMLP 250 nM, 60 min", "result": 8.5, "unit": "µg/mL"}, {"measurement": "Inhibition ratio (%)", "setting": "[3]; TNHH 0.781 μg/ml", "result": "−1.3", "unit": "%"}, {"measurement": "Inhibition ratio (%)", "setting": "[3]; TNHH 1.562 μg/ml", "result": 6.55, "unit": "%"}, {"measurement": "Inhibition ratio (%)", "setting": "[3]; TNHH 3.125 μg/ml", "result": 22.76, "unit": "%"}, {"measurement": "Inhibition ratio (%)", "setting": "[3]; TNHH 6.25 μg/ml", "result": 40.17, "unit": "%"}, {"measurement": "Inhibition ratio (%)", "setting": "[3]; TNHH 12.5 μg/ml", "result": 50.82, "unit": "%"}, {"measurement": "Inhibition ratio (%)", "setting": "[3]; TNHH 25 μg/ml", "result": 61.45, "unit": "%"}, {"measurement": "Inhibition ratio (%)", "setting": "[3]; TNHH 50 μg/ml", "result": 79.91, "unit": "%"}, {"measurement": "Inhibition ratio (%)", "setting": "[3]; TNHH 100 μg/ml", "result": 81.99, "unit": "%"}, {"measurement": "inhibition ratio compared with the control group", "setting": "[3]; concentration not given", "result": "about 70%"}]}]}
